In the DeepSol protein solubility set:

test: soluble on expression in E. coli; label from the status in PepcDB or PDB records

Sequence	soluble on expression in E. coli
MKCTKCGKPASVKLRHYNIKLCKEHFNEFIEQRVEKAIKKFKMFGRNSKILIAVSGGKDSVSLWHMLKKLGYEVDALFIRAGKSGMVQKAQEIVEKNAELLNTKLHIVDATEYFGGLSTQEISIMLRRPVCSICGVVRRYLMNKFAYENGYDVVVTGHNLNDEASVLLGNILHWQEGYLERQWPLLPKTHEKLVPKAKPLVLNYEEDIKLYATLNEIPHLEMACPFSVGATSLVYKKILRELEEEQPGITLNFYLGFLKRKKEPKFEVEGLRECKECGYPTTAEVCSFCRLRKQVEKRKNKTPA	soluble
MAHHHHHHMSTGHLRSVQLCRGQLRSLSHSSSMVGLRDFCNLVDECIKDIGVLKVNADDARILLHKRQQTFPSRHCDGVLAQTQVLYAQVLLKNLAEPVNRLIVRPVAVKNEGSEGLGVLHKPYDGAQSASPEIIAAQLELLQRAHRPTALNVLQDCRVHAATLLRAVRAVQLAQVRFSPHEKCTNTHGPKKKKK	not soluble
MILNPQKLSVDFGNGITATEPIIPRRYTLTHSDITAKLFLNIGLTYAYNKMTTMRDEVLGEWVKKSQDYSYQVFLHVDGRLGPKTTAIRNKIFRRELPLALEAIRYGDKRFFNAHPYLDNAPITVFFISTNPNFNKIENWGTFSDYNIESYYRNLEHHHHHH	soluble
MIIKIGTDRFWVKASNIERWAEILKSLPKKIPCSSKKDIARDYLGYKVDESGRIVNADEVYGLFGAEKDKDSLTIVGCNFIKEIEGGYELTEGAIELVERFKHNEEWEKVLGSQLLKYSIRIRTIAYAMLNGGYLYFEKGYMENFAKAYITLNDKKFYVFSSKPDEMNINSLMKENQSKILGDFWRKELDIGDGEEIEFRGVNKDYPSLGSMSTYLKIPMLLFDYLGWIVESEDGRYVLDKHKIKEDAGIDVYESLVNEADVDDIEILHKLIKEYSDARGFFPIGIVGSILKKKIDSENSMAEEQWIDHYFVTGINKGKFIIKDHEQGQPRHGRGLLGKKDYQLIKLEIRD	not soluble
MIPPEIRRSVLLQKAIKLALAGTLLTFASFSATAADPSSDTETPQPPDILLGPLFNDVQNAKLFPDQKTFADAIPNSDPLMILADYRMQRNQSGFDLRHFVDVNFTLPKAGEKYVPPAGQSLREHIDGLWPVLTRSTKNVEKWDSLLPLPESYVVPGGRFREIYYWDSYFTMLGLAESGHWDKVADMVANFGYEIDAWGHIPNGNRTYYLSRSQPPFFAFMVELLAQHEGDDALKEYLPQLQKEYAYWMEGVETLQPGQQNQRVVKLEDGSVLNRYWDDRDTPRPESWVEDIATAKSNPNRPATEIYRDLRSAAASGWDFSSRWMDNPQQLSTIRTTTIVPVDLNALLYQLEKTLARASAAAGDRAKASQYDALANARQKAIEMHLWNNKEGWYADYDLQNNKIRDQLTAAALFPLYVNAAAKDRAVKVAAAAQAHLLQPGGLATTSVKSGQQWDAPNGWAPLQWVAAEGLQNYGQDDVAMEVTWRFLTNVQHTYDREKKLVEKYDVSSTGTGGGGGEYPLQDGFGWTNGVTLKMLDLICPQEKPCDSVPSTRPASLSATPTKTPSAATQLEHHHHHH	not soluble
MFTKSGDDGNTNVINKRVGKDSPLVNFLGDLDELNSFIGFAISKIPWEDMKKDLERVQVELFEIGEDLSTQSSKKKIDEKYVKWLEERTVEYRKESGPVKLFVIPGGSEEASVLHVTRSVARRVERNAVKYTKELPEINRMIIVYLNRLSSLLFAMALVANKRRNVSEKIYDIGKFW	soluble
MGSDKIHHHHHHMCPLMAENHEVIEEGNSSELPLSAEDAKKLTELAENVLQGWDVQAEKIDVIQGNQMALVWKVHTDSGAVCLKRIHRPEKKALFSIFAQDYLAKKGMNVPGILPNKKGSLYSKHGSFLFVVYDWIEGRPFELTVKQDLEFIMKGLADFHTASVGYQPPNGVPIFTKLGRWPNHYTKRCKQMETWKLMAEAEAAAPFSQLYLQEIDGFIEDGLRIKDRLLQSTYVPWTEQLKKSPNLCHQDYGTGNTLLGENEQIWVIDLDTVSFDLPIRDLRKMIIPLLDTTGVWDDETFNVMLNAYESRAPLTEEQKQVMFIDMLFPYELYDVIREKYVRKSALPKEELESAFEYERIKANALRQLI	not soluble
MGSDKIHHHHHHMSEQYKQPNTPEPYWRQSTPLPDFKPLQNDLLVDVVIVGGGITGITTAYLLQKRGKKVVILEADRLFNGTTGHTTAKITAQHGLIYDEFIQHFGEDKAKQYYDAQMEAKTFIKNTVQDLSIDCDFQEHDAYIYTNANRYLAKLEREMRAYEKLQINGSLIDSMPLQVPIKKAIVMKGQAQFHPIAYLMKLVQDFIDRGGLIFEHTVATDVDKGEHRTVLTRDGHKVTCDYVVESSHFPFFDRGFYFSRMYADRSYVLGLKVKEPYPGGMYLSAEDPPRSIRHASYQGEDLWLISGETHKTGQGMDTDYHYEALESFSREMFNVTDISYRWSAQDLVTLDRMPYIGPATSNDPHILVATGFRKWGMTNGTIAAHVITDLIIGQVNAYQKLFAPQRFVADPSLRKFFSYNVDVAKHLIDGKTEKGSRTPESLQKDEGDVVNVNGKRAGGYRDTDGALHLVDTTCTHMGCEVSWNHGDRTWDCPCHGSRFSYDGEVVEGPAKKPLKKIDHT	not soluble
MGSDKIHHHHHHMKVKDLLNITDEDELKKYRVFRALSRFNYFPNQKQAIGELPDCFTTSSLTPEVCLRLLSGGIDNKRKNTGFAPVEYKSTRYNNIPRVLSLVHPVAHAQLCKHIYENWQDIEYISANTISRVRPEFYEVDKRIVVMNYDDPIVKDRKFNDITFGKKYIVNADIASCFDSIYSHSIPWAIKGYEFAKNNRGENEWFNQFDKFLRTTKRCETNGMPIGPATSSICLEIILARVDSRLHDLGFEHERYVDDFCCYCSTKEQADEFIIKLSELLAEYRLSLNLRKTTIIELPIASTDDWIVELNSLCIDRYNADGDLVLIGAKEAINIINKAVFLSQSHKDGSVIKFAVGFLVKKLADTAYQDVFECLLSLSFHYPILIPYLSILLGRGNLEAQHYVDKFQMIIEENALHKRSDGMAWPLHIFREHNIEPTQEIVDRVLETKDCVAITILQDICPDNENIRQFVVDISNDLDIKKDEYWLLLYQSYLLGHINNPYRDRCFIVLKDYGVNFFKTDSRTKFEMRCDNVGAVWAFKELEEIKQPQAKAVNI	not soluble
MAETDPKTVQDLTSVVQTLLQQMQDKFQTMSDQIIGRIDDMSSRIDDLEKNIADLMTQAGVEELESENKIPATQKS	not soluble
MGSDKIHHHHHHVDIQALKKVSELDVFSLLVFKLIYETGFANFAAKELAVSAPKISRCLTSLRAIFNDELFFRRQQGLKPTPLAERLYQPVCQLCDMVSQIERVADDRLNHHQTPILHIAVSPSIITSVAIALSKLPRDVIGKVKLHSWQADTEELIYNGELDFGIGFETQDTHGLEAYPIANVTSLCVVGNTNHLFWAGAEQIKLEDIIQHPIVYLRCKGFNNRIDPLELYCQTHGLLLEDIECARKLEDWYWHILTMDSLAITICNEGSFAQQIPQLRVERLPQSEFTKLNSVMAMPSYCLIERAEHYRRYSLNVKEMIIDIIKSLLV	not soluble
MSAEMTVEGMISVFMKIRKVYADEFGRMLGNETYSPNEISILLFLANNPSIDTNSQLCTCLGVSKALVCRSVDALLGKEMIISVADDHDKRVQHLKLTEHALPVIEQLGGIKRKIDQEILEGIPEEDIANMANTMEKIFARFEERAKGKESSL	not soluble
MSLTSSDVRNKYNFNSDWLLYVGDVPEAKQPRFSDSEWKKVTLPHAFNEDEAFRLSIDELTDTIMWYRKHFRLPANSKNKKVFVEFEGVRQGADFYINGQNVGLHENGVMAVGFDLTPYIKYGQENVIAVRIDNDWNYKERATGTKYQWSNKNFNANYGGIPKNVWLHVTDRLYQTLPLYSNLKTTGVYIYAEDIRVKSRKAIIHAESEIRNEYNRDKQVSYQVELIDRDGTSIQTFEGTKAVVKPGETITLKAASEVDNLHFWSWGYGYLYTVKTSLWVDGRKVDEVATRTGFRKTRFGKGMIWLNDRVIQMKGFAQRTSNEWPGVGMSVPAWLSDYSNHLMVEGNANLVRWMHVTPWKQDIESCDRVGLIQAMQAGDAEKDCEGRQWEQRTELMRDAIIYNRNNPSILFYECGNESISREHMIEMKAIRDLYDPHGGRAIGSREMLDIREAEYGGEMLYINKSAHHPMWAMEYCRDEGLRKYWDDYSYPYHKDGDGSNSYKSTVTNKVQKKVDARVYNRNQDSFTIENIIRWFDYWRERPGTGDRVSSGGVKIIFSDTNTHYRGVENYRRSGVTDAMRIPKDPFFAHQVMWDGWVDTECPRIYIVGHWNYNDTVVKPVYVVSSADKVELFLNGKSLGYGEQDYHFLYTFKDIAFVPGRLEAVGYDENGKECCRTQLQTAGKPEQIQLSFIQSPEGWKADGADMVLLQVEVMDKDGNRCPLANDLIHFEVEGPAEWRGGIAQGENNYILSKDLPVECGINRALIRSLTTAGNVRITAKADGLKPAEISLTSSPVEVKNGLSNYIPGDELEGRLTRGETPQTPSYKVSKVDVGIVSAIAGANNESTVNSFDDNELSEWRNDGKAATAWITYKLERAARVDEVCMKLTGWRMRSYPLEIYAGKELIWSGDTDKSLGYVHLDVKPVLTNEITIRLKGTSKEGDAFGQIVEVAAPVANELDLFKAKDGDKTGHELRIVEIEFKENLLKEGHHHHHH	soluble
VHSELTAAVGWNVWNELFTCSDDQTIHKWNMLGEPEQKVSTLDAYFTDMHWYPVSSKKTQAGGTDVFAVACTDGSVKILSRTGRVEKSIEGHKGACISLRWSYDGTALATAGEDGSVKIWSRNGMLRSTLAQADSPVYSIVWAYDCDQLCYCTGSNVVIKSLSSNAKQNAWKAHDGVVLKVDWSPINHLIITGGEDCKYKVWDSFGRLLFQSGLFDYPVTSVAWAPSGELFAVGGFNTLQLCDRMGWAYSKIHLNDTGSIMTLSWTADSTQLA	not soluble
MVVLVTRSLLPALFFASRAPFAAATTSARFQRGLATMAAEAFTKHEVIPDVLASNPPSKVVSVKFNSGVEANLGNVLTPTQVKDTPEVKWDAEPGALYTLIKTDPDAPSRKEPTYREWHHWLVVNIPGNDIAKGDTLSEYIGAGPPPKTGLHRYVYLIYKQSGRIEDAEHGRLTNTSGDKRGGWKAADFVAKHKLGAPVFGNLFQAEYDDYVPILNKQLGA	not soluble
MRVALFITCLADHFYPKAGVAPVRLLRALGVKVDFPKGQTCCGQPAFNAGYWDEARPLAKRTLEVFEEAEYVVLPSGSCTSMVKNHYPELLPGNREALAMAEKTYELSQFLVRVLGVEKLGEGLKGRRVAYHHGCHALRELGVREEPLLLLQNAGAEVLPWEAWEECCGFGGLFSVKLPEVSLAMADRKLATLPKAEVLTSTDAGCLLHLAGRLGKKGENLRVAPLATLLWEAYAG	soluble
MANLFKLGAENIFLGRKAATKEEAIRFAGEQLVKGGYVEPEYVQAMLDREKLTPTYLGESIAVPHGTVEAKDRVLKTGVVFCQYPEGVRFGEEEDDIARLVIGIAARNNEHIQVITSLTNALDDESVIERLAHTTSVDEVLELLAGRK	soluble
MKAVVFDFDGTMLDTENLWYTETMKYLKDTYNIDLPDEIYQQIIGTSEEPIISYMMEATNGAFDKEAFLTTVAEACHLGQQSLGFRNGFKEFFEQVKANGYKIGLATSSGFDWIEPTLDRLGILADFETIQTADHVEEIKPHPALYLQAVEALGVKPEEAIAIEDSKNGALSALQAGLKVYIVPNEATKNITFPKEATVVSSFAEIKLK	not soluble
GPGSMVLIECKRLPKDEYSKDYDVFLVSIPGVTNIGEATDVLQQMRNTRVRIKWMMAAAKQLAKDFCSEEQQHHLLGPVADAERYMSLERAERRLTCTQKELDDLVDAFKGGAMILFPAECSGTDAVKRLAQLLDDDNTTDTERSKAHRLLSIIDDGATTEDILQGVATMWWSGKQLDRAADFTKYVGKNEKTKITVKLTAKDAPAPPREPALDAKAQSELMAYYFRKQEEMKKMIEDEDLSYGNSAWANPQGLKSQLHGFDSVKFKPG	soluble
